Results taken from PMC11302929.
“And” between values parts separate entries of the source, which are not always exact repeats. Identical values can stand only once.

Target: recombinant soluble NDV HN ectodomain with GCN4IL dimerization domain (HN-GCN4IL) (not stated | Newcastle disease virus)
Assay: SEC; Superdex 200 Increase 10/300 GL column, freshly purified NDV HN proteins

Substance: recombinant soluble NDV HN ectodomain with GCN4IL dimerization domain (HN-GCN4IL)
- stoichiometry N: 2 and 4
